From the supplement of paper PMC10567573

B1: SLC35F2 (parent)
chain: SFMPLVIKVTSATSVNLGILTADL

Variants of: B1
Assay: protein stability index of a GFP-peptide fusion (GPS, HEK-293T) (PSI 1-6); higher = more stable
Settings: c terminus: a fixed tail appended
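Also: lentivirally expressed fusions sorted by FACS into six bins by GFP to DsRed ratio, PSI derived from sequencing read proportions per bin multiplied by bin number.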

Variant	protein stability index
SFMPLVIKLTSATSVNLGILTADL [V9L]	4.15
SFMPLVIKDTSATSVNLGILTADL [V9D]	1.78
SFMPLVIKHTSATSVNLGILTADL [V9H]	1.52
SFMPLVIKQTSATSVNLGILTADL [V9Q]	3.26
SFMPLVIKFTSATSVNLGILTADL [V9F]	3.51
SFYPLVIKVTSATSVNLGILTADL [M3Y]	1.96
SFNPLVIKVTSATSVNLGILTADL [M3N]	3.15
SFPPLVIKVTSATSVNLGILTADL [M3P]	3.32
SFMPLVIKVTSATSLNLGILTADL [V15L]	3.01
SFMPLVIKVTSATSKNLGILTADL [V15K]	3.59
SFMPLVIKVTSATSSNLGILTADL [V15S]	3.78
SFMPLVIKVTSATSRNLGILTADL [V15R]	3.44
SFMPLVISVTSATSVNLGILTADL [K8S]	3.16
SFMPLVIVVTSATSVNLGILTADL [K8V]	3.52
SFMPLVIHVTSATSVNLGILTADL [K8H]	2.59
SFMPLVIWVTSATSVNLGILTADL [K8W]	2.13
SFMPLVITVTSATSVNLGILTADL [K8T]	3
SFMPLVIKVYSATSVNLGILTADL [T10Y]	2.64
SFMPLVIKVKSATSVNLGILTADL [T10K]	2.12
SFMPLVIKVPSATSVNLGILTADL [T10P]	1.31
SFMMLVIKVTSATSVNLGILTADL [P4M]	3.13
SFMWLVIKVTSATSVNLGILTADL [P4W]	3.07
SFMHLVIKVTSATSVNLGILTADL [P4H]	3.09
SFMPLVIKVTSATSVRLGILTADL [N16R]	3.2

Variant	protein stability index
SFMPLVIKVTSATSVYLGILTADL [N16Y]	3.46
SFMPLVIKVTSATSVMLGILTADL [N16M]	3.88
SFMPLVIKVTSATSVELGILTADL [N16E]	2.55
SFMPLVIKVTSATSVGLGILTADL [N16G]	2.93
SFMPLVIKVTSATSVVLGILTADL [N16V]	4.07
SFMPLVIKVTSATSVNPGILTADL [L17P]	2.74
SFMPLVIKVTSATSVNHGILTADL [L17H]	2.92
SFMPLVIKVTSATSVNQGILTADL [L17Q]	3.52
SFMPLVIKVTSATSVNGGILTADL [L17G]	2.9
SFMPLVIKVTSATSVNNGILTADL [L17N]	2.99
SFMPLVIKVTSATSVNFGILTADL [L17F]	2.72
SFMPLVIKVTSATSVNLGILDADL [T21D]	2.61
SFMPLVIKVTSATSVNLGILHADL [T21H]	4.75
SFMPLVIKVTSATSVNLGILKADL [T21K]	2.52
SFMPLVEKVTSATSVNLGILTADL [I7E]	1.49
SFMPLVHKVTSATSVNLGILTADL [I7H]	1.57
SFMPLVDKVTSATSVNLGILTADL [I7D]	1.98
SFMPLVAKVTSATSVNLGILTADL [I7A]	2.13
SFMPLVFKVTSATSVNLGILTADL [I7F]	3.03
SFMPLHIKVTSATSVNLGILTADL [V6H]	2.74
SFMPLYIKVTSATSVNLGILTADL [V6Y]	3.21
SFMPLFIKVTSATSVNLGILTADL [V6F]	2.02
SFMPLCIKVTSATSVNLGILTADL [V6C]	3.92
SFMPLEIKVTSATSVNLGILTADL [V6E]	1.24

Variant	protein stability index
SFMPLLIKVTSATSVNLGILTADL [V6L]	2.32
SFMPLDIKVTSATSVNLGILTADL [V6D]	2.09
SFMPSVIKVTSATSVNLGILTADL [L5S]	1.47
SFMPDVIKVTSATSVNLGILTADL [L5D]	1.88
SFMPMVIKVTSATSVNLGILTADL [L5M]	2.94
SFMPLVIKVTKATSVNLGILTADL [S11K]	2.9
SFMPLVIKVTTATSVNLGILTADL [S11T]	2.03
SFMPLVIKVTIATSVNLGILTADL [S11I]	4.08
SFMPLVIKVTEATSVNLGILTADL [S11E]	2.8
SFMPLVIKVTSTTSVNLGILTADL [A12T]	2.89
SFMPLVIKVTSFTSVNLGILTADL [A12F]	2.25
SFMPLVIKVTSATSVNLGILTCDL [A22C]	4.09
SFMPLVIKVTSATSVNLGILTMDL [A22M]	3.85
SFMPLVIKVTSATSVNLGILTTDL [A22T]	3.93
SFMPLVIKVTSATMVNLGILTADL [S14M]	2.72
SVMPLVIKVTSATSVNLGILTADL [F2V]	2.68
SDMPLVIKVTSATSVNLGILTADL [F2D]	2.12
SNMPLVIKVTSATSVNLGILTADL [F2N]	2.48
SFMPLVIKVTSATSVNLGELTADL [I19E]	2.08
SFMPLVIKVTSATSVNLGIVTADL [L20V]	3.65
SFMPLVIKVTSATSVNLGIDTADL [L20D]	1.59
SFMPLVIKVTSATSVNLGIFTADL [L20F]	3.49
SFMPLVIKVTSATSVNLGIQTADL [L20Q]	3.08
SFMPLVIKVTSATSVNLGIKTADL [L20K]	1.93

Variant	protein stability index
SFMPLVIKVTSAGSVNLGILTADL [T13G]	2.38
SFMPLVIKVTSAESVNLGILTADL [T13E]	2.6
SFMPLVIKVTSACSVNLGILTADL [T13C]	3.16
SFMPLVIKVTSAQSVNLGILTADL [T13Q]	2.25
SFMPLVIKVTSAVSVNLGILTADL [T13V]	2.43
SFMPLVIKVTSALSVNLGILTADL [T13L]	2.94
SFMPLVIKVTSATSVNLGILTADF [L24F]	3.22
SFMPLVIKVTSATSVNLGILTADA [L24A]	3.11
SFMPLVIKVTSATSVNLGILTADS [L24S]	2.87
SFMPLVIKVTSATSVNLGILTADH [L24H]	3.57
SFMPLVIKVTSATSVNLGILTADQ [L24Q]	2.79
SFMPLVIKVTSATSVNLGILTAVL [D23V]	3.83
SFMPLVIKVTSATSVNLGILTAML [D23M]	1.83
SFMPLVIKVTSATSVNLGILTAEL [D23E]	4.12
SFMPLVIKVTSATSVNLGILTAPL [D23P]	2.65
SFMPLVIKVTSATSVNLGILTAHL [D23H]	3.1
SFMPLVIKVTSATSVNLGILTATL [D23T]	3.29
SFMPLVIKVTSATSVNLGILTAYL [D23Y]	3.03
SFMPLVIKVTSATSVNLGILTAAL [D23A]	2.74
FFMPLVIKVTSATSVNLGILTADL [S1F]	3.08
SFMPLVIKVTSATSVNLQILTADL [G18Q]	4.06
SFMPLVIKVTSATSVNLAILTADL [G18A]	2.54
